According to patent US20240336673A1 (WEST VIRGINIA UNIVERSITY BOARD OF GOVERNERS ON BEHALF OF …, published 2024):

Experiments:
[1] = biological target: T1, purified recombinant FliC from P. aeruginosa (polyHis-tag FliC protein, gene from P. aeruginosa PAO1) (Pseudomonas aeruginosa PAO1, UniProt P72151 1-488); test: direct ELISA of hybridoma supernatant on coated recombinant FliC
T1 construct: also called P. aeruginosa flagellin; purified FliC protein from P. aeruginosa; not shown: polyhistidine tag
T1 sequence: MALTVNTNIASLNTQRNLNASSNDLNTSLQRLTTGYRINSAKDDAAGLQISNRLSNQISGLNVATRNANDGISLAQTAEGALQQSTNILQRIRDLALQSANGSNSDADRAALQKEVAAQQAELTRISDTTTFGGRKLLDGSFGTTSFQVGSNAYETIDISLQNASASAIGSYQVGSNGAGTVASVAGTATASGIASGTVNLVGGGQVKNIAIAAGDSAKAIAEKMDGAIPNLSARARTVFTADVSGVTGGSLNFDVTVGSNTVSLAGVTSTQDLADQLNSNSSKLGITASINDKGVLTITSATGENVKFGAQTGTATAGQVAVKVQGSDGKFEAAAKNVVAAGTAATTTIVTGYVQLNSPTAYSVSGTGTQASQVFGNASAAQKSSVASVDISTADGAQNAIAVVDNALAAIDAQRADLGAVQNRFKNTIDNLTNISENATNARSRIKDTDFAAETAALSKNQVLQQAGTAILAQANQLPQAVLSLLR

[2] = biological target: T2, FliC protein at the surface of P. aeruginosa PAO1 (Pseudomonas aeruginosa PAO1, UniProt P72151 1-488); test: direct ELISA of hybridoma supernatant on whole P. aeruginosa PAO1
T2 construct: whole, on cells; Native protein on whole bacteria or in lysates; also called P. aeruginosa PAO1 flagellin; type b flagellin
T2 sequence: T1 sequence

B1: WVDC-2109 (antibody, V domains shown)
VH: EVQLQESGAELVKPGASVKLSCKASGYTFTSYWMHWVKQRPGQGLEWIGMIRPNSGSTNYNEKFKSKATLTVDKSSSTAYMQLSSPTSEDSAVYYCARRGYGSSYGYYAMDYWGQGTSVTVSS
VL: DIVVTQTTSSLSASLGDRVTISCRASQDISNYLNWYQQKPDGTVKLLINYTSRLNSGVPSRFSGSGSGTDYSLTISNLEQEDIATYFCQQGNTLPWTFGGGTKLE
notes: also called anti-FliC mAb; mAb WVDC-2109
B1: binds [1]; binds [2].
